Tests used:
[1] = target: T1, CSF1R (Homo sapiens, UniProt P07333); test: CSF1R tyrosine phosphorylation in L540Cy cells (CSF1R IP, p-Tyr western blot); type: cell-based; conditions: L540Cy cells stimulated with rhCSF-1
T1 construct: endogenous in cells; host or cells: L540Cy (Hodgkin/Reed-Sternberg cell line)
Experimental: FIG. 1. Lineage-inappropriate expression of functional CSF1R and CSF-1 in Hodgkin lymphoma cells. Analysis of CSF1R and CSF-1 protein expression and of CSF1R:Fc functionality. (A) Analysis of CSF1R and CSF1 mRNA expression by RT-PCR in Hodgkin and non-Hodgkin cell lines. Expression of GAPDH was analyzed as a control. (1a) Analysis of CSF1R and CSF1 mRNA expression by RT-PCR in Hodgkin's and non-Hodgkin's cell lines. GAPDH expression was analyzed as a control. One representative of four independent experiments is shown. (B, C) Analysis of CSF1R (B) and CSF-1 (C) protein expression in various cell lines by extracellular and intracellular flow cytometry, respectively. IC, isotype control. (D) Supernatants of various cell lines were analyzed by a CSF-1-specific ELISA. […] CSF1R tyrosine phosphorylation was detected by WB with an antibody recognizing phospho-tyrosine (p-Tyr; upper panel). […] CSF1R tyrosine phosphorylation was detected by western blotting with an antibody recognizing phosphotyrosine (p-Tyr; top). […]
FIG. 3. […] After 48 hours, cells were pulsed with 1 μCi [^3H]-thymidine per well for a further 20 hours, and [^3H]-thymidine incorporation was determined cpm, counts per minute. […] (3A) [^3H]-thymidine incorporation in L540Cy cells left untreated (−) or treated with the indicated amounts of rhCSF-1 (black bars) or water control (open bars) under serum-reduced conditions (1% FCS) determined after 48 h. […]

[2] = tested on: L540Cy cells; test: [3H]-thymidine incorporation in L540Cy cells; type: cell-based, human; conditions: 1% FCS, 48 h
Experimental: FIG. 3. HRS cells depend on CSF1R activity. (A) L540Cy cells were left untreated (−) or treated with the indicated amounts rhCSF-1 (closed bars) or the respective control (open bars) under serum reduced conditions (1% FCS). After 48 hours, cells were pulsed with 1 μCi [^3H]-thymidine per well for a further 20 hours, and [^3H]-thymidine incorporation was determined cpm, counts per minute. Data are represented as mean±SD. (3A) [^3H]-thymidine incorporation in L540Cy cells left untreated (−) or treated with the indicated amounts of rhCSF-1 (black bars) or water control (open bars) under serum-reduced conditions (1% FCS) determined after 48 h. Data are represented as means±s.d. […] After 24 hours, cells were pulsed with [^3H]-thymidine incorporation and analyzed as described in (A). […] CSF1R tyrosine phosphorylation was analyzed as described in FIG. 1F. […]
DNA synthesis was determined by [^3H]-thymidine incorporation assays using standard protocols. The percentage of viable and apoptotic cells was determined by annexin V-FITC/propidium iodide (PI) double-staining (Bender MedSystems) and subsequent FACS analysis.
We determined DNA synthesis by [^3H]-thymidine incorporation assays using standard protocols. In case of L540Cy cells (FIG. 1d), after 48 hours, cells were pulsed with 1 μCi [^3H]-thymidine per well for a further 20 hours, and [^3H]-thymidine incorporation was determined. […]

T1 sequence (P07333 20-972): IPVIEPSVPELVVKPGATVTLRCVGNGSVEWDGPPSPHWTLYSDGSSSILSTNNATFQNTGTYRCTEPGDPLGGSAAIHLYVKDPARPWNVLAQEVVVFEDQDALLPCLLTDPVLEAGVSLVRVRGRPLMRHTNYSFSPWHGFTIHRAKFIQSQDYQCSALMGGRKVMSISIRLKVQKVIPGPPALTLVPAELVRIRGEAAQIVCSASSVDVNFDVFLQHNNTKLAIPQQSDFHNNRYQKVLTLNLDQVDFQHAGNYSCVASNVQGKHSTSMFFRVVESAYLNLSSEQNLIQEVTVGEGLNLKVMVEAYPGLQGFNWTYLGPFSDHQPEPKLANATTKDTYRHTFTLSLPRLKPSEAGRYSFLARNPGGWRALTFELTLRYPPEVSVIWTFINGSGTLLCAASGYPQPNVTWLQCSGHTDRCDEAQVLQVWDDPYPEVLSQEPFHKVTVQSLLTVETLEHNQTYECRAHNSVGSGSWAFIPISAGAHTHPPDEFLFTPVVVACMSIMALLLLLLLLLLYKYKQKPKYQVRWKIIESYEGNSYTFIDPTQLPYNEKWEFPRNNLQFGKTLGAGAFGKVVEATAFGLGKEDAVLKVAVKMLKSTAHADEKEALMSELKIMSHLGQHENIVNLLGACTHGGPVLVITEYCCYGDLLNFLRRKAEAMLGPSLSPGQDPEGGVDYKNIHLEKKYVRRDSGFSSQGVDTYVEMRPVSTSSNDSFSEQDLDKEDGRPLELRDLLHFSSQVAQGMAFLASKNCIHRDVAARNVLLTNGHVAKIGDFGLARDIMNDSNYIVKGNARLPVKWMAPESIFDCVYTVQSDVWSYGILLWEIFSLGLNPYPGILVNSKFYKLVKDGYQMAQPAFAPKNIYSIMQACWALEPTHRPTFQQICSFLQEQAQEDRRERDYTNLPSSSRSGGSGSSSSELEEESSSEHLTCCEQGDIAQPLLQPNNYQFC

B1: rhCSF-1: recombinant human CSF-1 (216-MC, R&D Systems) (protein)
chain: EEVSEYCSHMIGSGHLQSLQRLIDSQMETSCQITFEFVDQEQLKDPVCYLKKAFLLVQDIMEDTMRFRDNTPNAIAIVQLQELSLRLKSCFTKDYEEHDKACVRTFYETPLQLLEKVKNVFNETKNLLDKDWNIFSKNCNNSFAECSSQDVVTKPDCN
CSF1R tyrosine phosphorylation following stimulation [1]: rapid increase
proliferation ([3H]-thymidine incorporation) [2]: induced proliferation in a dose-dependent manner
